# Results reported in doi:10.1101/2021.03.28.437443.
# Target: uncleaved full-length membrane-anchored HIV-1 JR-FL Env(-) glycoprotein (HIV-1 (strain JR-FL))
# Assay: cryo-EM structure
substance,measurement,value
uncleaved full-length membrane-anchored HIV-1 JR-FL Env(-) glycoprotein (natural protein),stoichiometry N,3
